“And” between values parts separate entries of the source, which are not always exact repeats. Equal entries are not always repeated. Where two headings read alike, the source gives them in different places. Marks after values point to notes of the source that are not given here.
Columns and labels:
[1] = tested on: peripheral CD4+ and CD8+ T cells; experiment: Ki-67 expression on peripheral T cells of patients by flow cytometry; format: in vivo, human
Description: T cell proliferation was examined by analyzing Ki-67 expression using flow cytometry analysis. Soluble CD137 (sCD137) levels in plasma were also examined using a validated MSD-based electrochemiluminescence assay.

MC38 colon cancer cells = experiment: MC38 colon cancer model, ADG106 with local radiation; format: in vivo, C57BL/6 mice; settings: 10 mg/kg twice a week for 3 weeks
Description: C57BL/6 mice (n=8 per group, female, 6-8 weeks old) were transplanted subcutaneously with 5×10^5 MC38 colon cancer cells. […] Tumor growth was monitored twice weekly and reported as mean tumor volume ±SEM over time.

Lewis lung cancer cells = experiment: Lewis lung cancer model, ADG106 with cisplatin; format: in vivo, C57BL/6 mice; settings: 5 mg/kg i.p.
Description: C57BL/6 mice (n=8 per group, female, 6-8 weeks old) were transplanted subcutaneously with 5×10^5 Lewis lung cancer cells. […] Tumor growth was monitored twice weekly and reported as mean tumor volume ±SEM over time.

[2] = target: CD137 / CD137 ligand (4-1BBL) (Homo sapiens, UniProt Q07011); experiment: Blocking of CD137 / CD137 ligand interaction; format: binding
Sequence of CD137 / CD137 ligand (4-1BBL) (Q07011 24-255): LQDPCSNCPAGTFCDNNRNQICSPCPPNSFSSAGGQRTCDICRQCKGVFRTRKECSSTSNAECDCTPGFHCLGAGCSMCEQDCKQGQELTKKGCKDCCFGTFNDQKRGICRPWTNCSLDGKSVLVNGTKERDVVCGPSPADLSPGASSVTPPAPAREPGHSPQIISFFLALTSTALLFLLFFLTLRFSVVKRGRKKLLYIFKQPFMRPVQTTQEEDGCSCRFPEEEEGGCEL
Description: This was expected given that CD137 is known to function as a co-stimulatory T cell receptor. […] This property might prevent the potential of dual independent activation of CD137 potentially accounting for its distinct pharmacology and toxicology profile among this class of therapeutic antibodies.

4T1 breast cancer cells = experiment: 4T1 breast cancer model, ADG106 with ADG116; format: in vivo, BALB/c mice; settings: ADG106 5 mg/kg, ADG116 2 mg/kg i.p. twice a week for 2 weeks
Description: Tumor growth was monitored twice weekly and is reported as mean tumor volume ±SEM over time.

[3] = human, in vivo, iv
Description: (§2) Blood samples for PK analysis were collected at Cycle 1 (Day 1: pre-dose and 2, 6, 12, and 24 hours after the end of infusion; once on Days 8, 15, and 22), Day 1 pre-dose and 2 hours after the end of infusion of subsequent cycles, and at the End of Treatment. […] PK parameters were estimated using a non-compartmental method with WinNonlin.

CD137 [4] = target: T1, CD137 (Homo sapiens, UniProt Q07011); experiment: Receptor occupancy calculated from drug plasma concentration and KD
T1 sequence (Q07011 24-255): as above

[5] = Clinical pharmacokinetics, serum ADG106 by ELISA, non-compartmental analysis
Description: as §2

LLC-CD20 cells = experiment: LLC-CD20 lung cancer model, ADG106 with rituximab; format: in vivo, C57BL/6 mice; settings: 10 mg/kg i.p. twice a week for 3 weeks
Description: C57BL/6 mice (n=6 per group, female, 6-8 weeks old) were transplanted subcutaneously with 5×10^5 LLC-CD20 cells, a Lewis lung cancer cell line expressing CD20. […] Tumor growth was monitored twice weekly and reported as mean tumor volume ±SEM over time.

[6] = tested on: CT-26 (colon carcinoma), H22 (liver cancer), EMT6 (breast cancer); experiment: Single agent efficacy in syngeneic mouse tumor models (CT-26, H22, EMT6); format: in vivo
[7] = GLP repeat-dose toxicity and safety pharmacology in cynomolgus monkeys; format: in vivo, cynomolgus monkey
[8] = tested on: L5178-S murine T cell lymphoma; experiment: L5178-S murine T cell lymphoma syngeneic model; format: in vivo, DBA/2 mice; settings: 20 mg/kg i.p. once every 3 days
Description: The animals were randomized and treatment started when tumor volumes reach 50-80 mm^3, or on the day of cell inoculation (FIGS. 17A and 17C). Each group consisted of 8 tumor-bearing mice. […] Tumor growth and animal body weight were monitored every 2-3 days.

[9] = tested on: 3LL (JCRB) murine lung cancer cells; experiment: 3LL lung cancer model, ADG106 with atezolizumab; format: in vivo, C57BL/6 mice; settings: 10 mg/kg i.p. twice a week for 3 weeks
Description: C57BL/6 mice (n=10 per group, female, 6-8 weeks old) were inoculated subcutaneously with 3LL (JCRB) murine lung cancer cells, a Lewis lung cancer cell line.

[10] = Clinical immunogenicity, anti-drug antibody (ADA) immunoassay; format: in vivo, human
Description: Blood samples were collected as described in the PK analysis. The anti-drug-antibody (ADA) to ADG106 in human serum was measured using a validated Affinity Capture and Elution (ACE) based immunoassay. All samples were first analyzed for ADAs in a screening assay. Study samples with results below the screening cut-off were reported as negative for ADAs. In the event of a positive result in the screening assay, samples were analyzed in the confirmatory assay. All samples confirmed positive were reported as positive.

human blood = experiment: Cytokine release in human blood ex vivo; format: cell-based
CD137 receptor = experiment: Cellular NFκB reporter gene assay (CD137-expressing NFκB-Luc Jurkat reporter cells); format: cell-based, human; settings: functional cellular NFκB reporter gene assay
Description: (§1) The CD137-expressing NFκB-Luc Jurkat reporter cells were stimulated with the anti-CD137 antibodies in the absence (left panel) or presence (right panel) of co-cultured CHO-K1 cell expressing human FcγRIIb. Luciferase activity was measured by bioluminescence assay.

CD137 [11] = target: T1, CD137; experiment: as above; format: cell-based; parameters: expressed in transfected cells; host or cells: NFκB-Luc Jurkat reporter cells (with or without co-cultured CHO-K1 cells expressing human FcγRIIb)
Description: as §1

NK (CD16+/CD56+) cells = experiment: TBNK flow cytometry of patient peripheral blood, NK cell percentage; format: in vivo, human; settings: for Percentage of NK cells (CD3-CD56+/CD16+), Postdose: individual patients
Description: Pre- and post-treatment peripheral blood samples from 31 patients in a phase 1 trial were collected for biomarker analyses. The TBNK flow cytometry assay was employed to measure the composition of T (CD3+, CD4+/CD8+ subsets), B (CD19+) and NK (CD16+/CD56+) cells in peripheral blood samples. NK cell levels were determined as percentages of CD45+ lymphocytes and absolute cell counts.

ADG106: fully human agonistic anti-CD137 monoclonal IgG4 antibody; heavy chain SEQ ID NO: 10, light chain SEQ ID NO: 11
increase in the frequency of Ki-67+CD4+ T cells ([1]; patient R011): increased about one fold
increase in the frequency of proliferating CD8+ T cells ([1]; patient R011): four to five fold increase
total CD8+ T cells expressing Ki-67 at peak ([1]; patient R011, 21 days after infusion): ~25%
antitumor activity, alone (MC38 colon cancer cells): marginal if any antitumor activity
anti-tumor activity, monotherapy (Lewis lung cancer cells): showed anti-tumor activity
blocking of the interaction of CD137 to the CD137 ligand (4-1BBL) [2]: fully blocks
anti-tumor activity, monotherapy (4T1 breast cancer cells): showed anti-tumor activity
T1/2 ([3]; 0.03 mg/kg): 87 h
T1/2 ([3]; 0.3 mg/kg): 159 h
T1/2 ([3]; 1 mg/kg): 146.3 h
T1/2 ([3]; 3 mg/kg): 149 h
Receptor occupancy (CD137 [4]; 0.03 mg/kg): 58%
Receptor occupancy (CD137 [4]; 0.1 mg/kg): 82%
Receptor occupancy (CD137 [4]; 0.3 mg/kg): 93%
Calculated Receptor Occupancy (CD137 [4]; 1 mg/kg): 98%
AUC(0-t) ([5]; Chinese study, 0.1 mg/kg IV): 255 µg·h/mL
CLz ([5]; Chinese study, 0.1 mg/kg IV): 8.88 mL/day/kg
AUC(0-t) ([5]; Chinese study, 0.5 mg/kg IV): 1761 µg·h/mL
CLz ([5]; Chinese study, 0.5 mg/kg IV): 6.72 mL/day/kg
T½ ([5]; Chinese study, 0.5 mg/kg IV): 146 h
AUC(0-t) ([5]; Chinese study, 1.5 mg/kg IV): 4162 µg·h/mL
CLz ([5]; Chinese study, 1.5 mg/kg IV): 7.92 mL/day/kg
T½ ([5]; Chinese study, 1.5 mg/kg IV): 180 h
AUC(0-t) ([5]; Chinese study, 3 mg/kg IV): 10016 µg·h/mL
CLz ([5]; Chinese study, 3 mg/kg IV): 6 mL/day/kg
T½ ([5]; Chinese study, 3 mg/kg IV): 214 h
AUC(0-t) ([5]; Chinese study, 5 mg/kg IV): 20966 µg·h/mL
CLz ([5]; Chinese study, 5 mg/kg IV): 5.28 mL/day/kg
T½ ([5]; Chinese study, 5 mg/kg IV): 173 h
AUC(0-t) ([5]; Chinese study, 10 mg/kg IV): 39658 µg·h/mL
CLz ([5]; Chinese study, 10 mg/kg IV): 5.52 mL/day/kg
T½ ([5]; Chinese study, 10 mg/kg IV): 132 h
AUC(0-t) ([5]; US study, cycle 1, 0.03 mg/kg IV, n=1): 0.626 µg·h/mL
AUC(0-t) ([5]; US study, cycle 1, 0.1 mg/kg IV, n=1): 0.668 µg·h/mL
AUC(0-t) ([5]; US study, cycle 1, 0.3 mg/kg IV, n=1): 1.387 µg·h/mL
AUC(0-t) ([5]; US study, cycle 1, 1 mg/kg IV, n=3): 3.8767 µg·h/mL
AUC(0-t) ([5]; US study, cycle 1, 3 mg/kg IV, n=3): 18.42 µg·h/mL
mean half-life ([5]; doses ≥0.5 mg/kg): around 7 days
tumor growth, single agent (LLC-CD20 cells): only weakly inhibited tumor growth
single agent efficacy in CT-26, H22 and EMT6 syngeneic models ([6]; mouse, in vivo): single agent anti-tumor efficacy
median effective dose (ED50) ([6]; syngeneic mouse liver and breast cancer models): approximately 1 mg/kg
NOAEL and HNSTD ([7]; cynomolgus monkey, in vivo): > 200 mg/kg
NOEL and NOAEL ([7]; once weekly IV infusion up to 29 days): 200 mg/kg
antitumor activity [8]: has antitumor activity
anti-tumor activity, monotherapy [9]: showed anti-tumor activity
treatment emergent or boosted ADA ([10]; Chinese patients tested so far): 5 of 23
patients with treatment-induced anti-drug antibodies ([10]; patients tested): about 20%
cytokine (IL-2, IL-4, IL-6, IL-10, TNF-α, IFN-γ, IL-17) release (human blood): did not stimulate cytokine
potency to activate recombinant human, monkey, mouse, and rat CD137 receptors (CD137 receptor): comparable nanomolar potency
concentration saturating activation of CD137 receptor signaling (CD137 [11]; crosslinking-dependent, in vitro): 1 µg/mL
EC80 of NFκB signaling activation (CD137 [11]; nonlinearly regressed concentration-effect curve): ≤ 1.8 µg/mL
human CD137 agonism following crosslinking (CD137 [11]; with crosslinking): function as agonists
Percentage of NK cells (CD3-CD56+/CD16+), Postdose (NK (CD16+/CD56+) cells; C1D8): 25.14% and 28.38% and 11.18% and 22.03% and 35.85% and 36.13% and 8.25% and 22.79% and 46.22% and 15.01% and 14.06% and 34.54% and 11.84% and 32.43% and 10.14% and 23.1% and 55% and 35.4% and 19.5% and 14.7% and 25%
Percentage of NK cells (CD3-CD56+/CD16+), Postdose (NK (CD16+/CD56+) cells; C1D15): 21.21* % and 22.19* %
Percentage of NK cells (CD3-CD56+/CD16+), Postdose (NK (CD16+/CD56+) cells; C1D21): 39.58^# % and 4.27^# % and 20.01^# % and 34.74^# % and 40.45^# % and 26.93^# % and 27.23^# % and 18.81^# % and 16.65^# %
dose saturating CD137 receptors on NK cells (NK cell proliferation effect) (NK (CD16+/CD56+) cells; patients): ≥ 1.5 mg/kg
